From publication PMC12669767

T1: YFP-NEDD4, P46934
T1 chain: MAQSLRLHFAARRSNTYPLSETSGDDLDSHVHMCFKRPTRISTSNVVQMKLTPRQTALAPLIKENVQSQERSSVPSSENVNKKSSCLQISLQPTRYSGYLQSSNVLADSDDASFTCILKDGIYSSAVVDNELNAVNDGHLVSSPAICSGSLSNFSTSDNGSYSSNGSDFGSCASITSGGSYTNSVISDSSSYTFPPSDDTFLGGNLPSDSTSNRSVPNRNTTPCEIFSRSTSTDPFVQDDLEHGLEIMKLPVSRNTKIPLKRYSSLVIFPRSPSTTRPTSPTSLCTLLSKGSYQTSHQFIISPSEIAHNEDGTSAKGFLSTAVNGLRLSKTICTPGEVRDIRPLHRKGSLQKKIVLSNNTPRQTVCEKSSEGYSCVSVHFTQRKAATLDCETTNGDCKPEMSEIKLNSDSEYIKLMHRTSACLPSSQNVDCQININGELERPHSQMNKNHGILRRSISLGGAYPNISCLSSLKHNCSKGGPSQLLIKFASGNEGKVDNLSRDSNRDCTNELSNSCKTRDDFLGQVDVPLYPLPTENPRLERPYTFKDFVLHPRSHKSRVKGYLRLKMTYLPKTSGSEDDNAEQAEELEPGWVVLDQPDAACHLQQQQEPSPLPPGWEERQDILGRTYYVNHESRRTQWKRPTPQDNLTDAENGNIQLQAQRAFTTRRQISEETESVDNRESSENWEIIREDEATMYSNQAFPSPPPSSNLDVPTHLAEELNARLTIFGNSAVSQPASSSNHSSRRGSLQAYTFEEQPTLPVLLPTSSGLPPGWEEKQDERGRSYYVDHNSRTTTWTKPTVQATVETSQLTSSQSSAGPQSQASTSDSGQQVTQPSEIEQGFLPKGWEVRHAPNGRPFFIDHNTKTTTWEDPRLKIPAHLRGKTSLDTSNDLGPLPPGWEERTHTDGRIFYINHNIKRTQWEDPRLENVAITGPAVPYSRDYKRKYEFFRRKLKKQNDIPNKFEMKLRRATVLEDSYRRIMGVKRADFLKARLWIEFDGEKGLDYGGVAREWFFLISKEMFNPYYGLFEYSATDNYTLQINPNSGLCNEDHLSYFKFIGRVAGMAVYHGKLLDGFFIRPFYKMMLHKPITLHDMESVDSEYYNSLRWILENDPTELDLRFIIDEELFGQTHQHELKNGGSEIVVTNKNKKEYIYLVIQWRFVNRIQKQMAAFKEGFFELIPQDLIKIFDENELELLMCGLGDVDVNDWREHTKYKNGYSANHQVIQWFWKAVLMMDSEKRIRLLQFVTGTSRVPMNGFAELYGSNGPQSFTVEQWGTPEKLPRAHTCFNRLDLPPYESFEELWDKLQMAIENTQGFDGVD

T2: NEDD4, endogenous in HEK293T, P46934
T2 chain: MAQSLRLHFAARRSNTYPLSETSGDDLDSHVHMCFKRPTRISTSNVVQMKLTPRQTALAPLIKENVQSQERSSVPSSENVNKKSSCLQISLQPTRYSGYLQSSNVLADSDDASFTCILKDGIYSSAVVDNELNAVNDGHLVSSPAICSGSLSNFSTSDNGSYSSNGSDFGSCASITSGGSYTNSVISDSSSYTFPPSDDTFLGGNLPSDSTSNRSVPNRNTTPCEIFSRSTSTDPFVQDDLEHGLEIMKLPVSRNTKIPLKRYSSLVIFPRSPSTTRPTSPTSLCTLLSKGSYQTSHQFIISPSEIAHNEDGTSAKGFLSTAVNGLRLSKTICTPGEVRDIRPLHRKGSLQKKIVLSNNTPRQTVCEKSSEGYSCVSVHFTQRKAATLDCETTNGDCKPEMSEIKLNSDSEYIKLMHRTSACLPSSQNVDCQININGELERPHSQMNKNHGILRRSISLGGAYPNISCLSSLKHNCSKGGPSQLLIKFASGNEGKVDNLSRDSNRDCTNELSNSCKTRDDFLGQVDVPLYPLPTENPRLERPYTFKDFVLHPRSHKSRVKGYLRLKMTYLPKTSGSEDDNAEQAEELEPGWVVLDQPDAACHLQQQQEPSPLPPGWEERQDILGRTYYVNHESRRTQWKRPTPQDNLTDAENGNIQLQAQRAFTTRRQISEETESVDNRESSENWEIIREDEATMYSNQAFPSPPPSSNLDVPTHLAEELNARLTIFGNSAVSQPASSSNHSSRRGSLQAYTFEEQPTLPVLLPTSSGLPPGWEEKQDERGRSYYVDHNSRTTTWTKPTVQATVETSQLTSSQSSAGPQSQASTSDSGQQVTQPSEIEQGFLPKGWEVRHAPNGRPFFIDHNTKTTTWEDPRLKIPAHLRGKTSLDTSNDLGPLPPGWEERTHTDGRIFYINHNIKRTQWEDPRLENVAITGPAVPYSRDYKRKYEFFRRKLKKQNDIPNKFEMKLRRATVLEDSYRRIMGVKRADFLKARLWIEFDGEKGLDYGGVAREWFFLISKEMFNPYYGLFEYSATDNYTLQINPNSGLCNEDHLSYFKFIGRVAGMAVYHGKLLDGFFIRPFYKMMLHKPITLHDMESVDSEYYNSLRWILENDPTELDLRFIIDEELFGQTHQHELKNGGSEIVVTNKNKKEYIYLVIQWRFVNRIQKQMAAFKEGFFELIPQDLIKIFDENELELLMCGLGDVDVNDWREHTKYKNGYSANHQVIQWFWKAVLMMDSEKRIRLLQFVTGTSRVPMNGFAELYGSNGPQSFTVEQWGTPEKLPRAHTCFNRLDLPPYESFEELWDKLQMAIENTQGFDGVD


Columns and labels:
YFP-NEDD4, P46934 = molecular target: T1, YFP-NEDD4, P46934; experiment: bead binding assay, fluorescence microscopy of YFP-NEDD4 on ALFA-TXNIP beads; conditions: chain shown with the change, value is the box-plot median, n = 40 beads, lysate of HEK293T cells over-expressing YFP-NEDD4, ctrl beads est. 20, parent: est. 38, read off a plot
[1] = molecular target: HECW2, endogenous in HEK293T, Q9P2P5; experiment: co-immunoprecipitation of ALFA-TXNIP, label-free quantitative interactome (mass spectrometry); conditions: chain shown with the change, immunoprecipitated from HEK293T cells, n = 3, read off a plot; for response (normalized abundance): abundances normalized to unspecific background binding to empty beads, scatter plot
HECW2, endogenous in HEK293T, Q9P2P5, sequence (Q9P2P5 whole entry): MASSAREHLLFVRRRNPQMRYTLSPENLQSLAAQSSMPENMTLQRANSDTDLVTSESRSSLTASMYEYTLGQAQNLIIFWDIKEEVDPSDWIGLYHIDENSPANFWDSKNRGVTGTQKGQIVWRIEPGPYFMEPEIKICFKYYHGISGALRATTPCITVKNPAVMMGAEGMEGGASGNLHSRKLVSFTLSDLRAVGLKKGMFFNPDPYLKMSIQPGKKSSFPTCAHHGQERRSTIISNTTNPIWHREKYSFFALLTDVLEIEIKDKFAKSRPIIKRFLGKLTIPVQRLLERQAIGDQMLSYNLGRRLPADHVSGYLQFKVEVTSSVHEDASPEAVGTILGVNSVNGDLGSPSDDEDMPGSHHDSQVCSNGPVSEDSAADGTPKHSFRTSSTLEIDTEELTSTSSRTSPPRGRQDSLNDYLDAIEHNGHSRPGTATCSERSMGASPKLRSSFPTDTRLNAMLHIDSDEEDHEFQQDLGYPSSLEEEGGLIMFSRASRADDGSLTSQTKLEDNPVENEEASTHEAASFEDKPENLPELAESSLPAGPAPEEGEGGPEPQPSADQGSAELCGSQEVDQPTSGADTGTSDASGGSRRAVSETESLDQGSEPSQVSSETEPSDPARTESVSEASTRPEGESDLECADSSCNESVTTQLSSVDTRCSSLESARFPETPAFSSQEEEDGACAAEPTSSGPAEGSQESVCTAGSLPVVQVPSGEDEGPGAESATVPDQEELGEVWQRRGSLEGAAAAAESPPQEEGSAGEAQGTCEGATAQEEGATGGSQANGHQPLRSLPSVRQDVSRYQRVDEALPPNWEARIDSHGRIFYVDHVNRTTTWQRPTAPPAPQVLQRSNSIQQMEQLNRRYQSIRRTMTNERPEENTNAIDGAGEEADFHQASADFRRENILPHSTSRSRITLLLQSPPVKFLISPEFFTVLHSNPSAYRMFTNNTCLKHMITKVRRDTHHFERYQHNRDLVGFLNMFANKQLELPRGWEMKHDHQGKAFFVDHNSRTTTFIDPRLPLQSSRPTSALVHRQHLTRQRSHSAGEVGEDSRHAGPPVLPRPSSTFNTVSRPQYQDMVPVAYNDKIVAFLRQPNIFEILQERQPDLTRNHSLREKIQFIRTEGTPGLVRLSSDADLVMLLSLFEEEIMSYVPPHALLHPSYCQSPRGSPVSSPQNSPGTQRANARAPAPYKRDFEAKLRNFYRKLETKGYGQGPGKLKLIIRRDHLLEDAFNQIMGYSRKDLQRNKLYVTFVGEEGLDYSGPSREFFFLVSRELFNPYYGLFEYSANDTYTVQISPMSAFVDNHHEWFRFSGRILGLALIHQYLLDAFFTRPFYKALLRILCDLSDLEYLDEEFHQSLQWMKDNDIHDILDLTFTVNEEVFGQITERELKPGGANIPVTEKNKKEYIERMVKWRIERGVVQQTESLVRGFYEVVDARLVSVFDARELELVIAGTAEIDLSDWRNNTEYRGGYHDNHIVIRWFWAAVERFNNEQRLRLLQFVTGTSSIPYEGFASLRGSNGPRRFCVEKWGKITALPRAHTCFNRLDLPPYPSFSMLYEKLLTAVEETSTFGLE

[2] = molecular target: T2, NEDD4, endogenous in HEK293T, P46934; experiment: as above; conditions: chain shown with the change, immunoprecipitated from HEK293T cells, n = 3, read off a plot; for response (normalized abundance): abundances normalized to unspecific background binding to empty beads, scatter plot
[3] = molecular target: WWP2, endogenous in HEK293T, O00308; experiment: as above; conditions: chain shown with the change, immunoprecipitated from HEK293T cells, n = 3, read off a plot; for response (normalized abundance): abundances normalized to unspecific background binding to empty beads, scatter plot
WWP2, endogenous in HEK293T, O00308, sequence (O00308 whole entry): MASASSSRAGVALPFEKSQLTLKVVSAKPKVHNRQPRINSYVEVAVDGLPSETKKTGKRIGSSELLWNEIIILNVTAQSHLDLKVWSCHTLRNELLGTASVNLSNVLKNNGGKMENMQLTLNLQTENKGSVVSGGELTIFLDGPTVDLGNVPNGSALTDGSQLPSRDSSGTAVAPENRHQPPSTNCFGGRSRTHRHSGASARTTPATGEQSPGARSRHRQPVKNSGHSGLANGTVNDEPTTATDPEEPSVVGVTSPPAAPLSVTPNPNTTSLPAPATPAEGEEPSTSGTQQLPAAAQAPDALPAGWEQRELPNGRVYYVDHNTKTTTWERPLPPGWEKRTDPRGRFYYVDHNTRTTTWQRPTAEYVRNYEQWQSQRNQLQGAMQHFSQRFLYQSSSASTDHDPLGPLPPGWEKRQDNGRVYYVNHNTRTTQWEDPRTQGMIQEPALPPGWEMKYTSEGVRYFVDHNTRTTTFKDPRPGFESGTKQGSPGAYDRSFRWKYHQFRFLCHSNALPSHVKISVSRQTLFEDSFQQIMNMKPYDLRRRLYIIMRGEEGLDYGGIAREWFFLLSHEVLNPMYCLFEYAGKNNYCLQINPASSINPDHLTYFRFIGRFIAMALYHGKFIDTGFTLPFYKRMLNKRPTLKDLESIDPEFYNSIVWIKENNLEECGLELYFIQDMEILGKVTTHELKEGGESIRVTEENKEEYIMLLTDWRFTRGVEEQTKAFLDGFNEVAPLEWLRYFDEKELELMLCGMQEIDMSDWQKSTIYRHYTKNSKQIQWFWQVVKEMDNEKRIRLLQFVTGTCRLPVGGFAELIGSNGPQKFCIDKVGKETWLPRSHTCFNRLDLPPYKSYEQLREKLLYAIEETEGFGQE

response (YFP-NEDD4, P46934; printed p=0.2365 against ALFA-TXNIP)	response (normalized abundance) ([1]; parent: est. 1.0e8)	other: log2 PPxY331/WT [1]	response (normalized abundance) ([2]; parent: est. 4.5e8)	other: log2 PPxY331/WT [2]	response (normalized abundance) ([3]; parent: est. 1.4e9)	other: log2 PPxY331/WT [3]	response (YFP-NEDD4, P46934; printed p<0.0001 against ALFA-TXNIP)	response (normalized abundance) ([1]; parent: est. 1.3e8)	response (normalized abundance) ([2]; parent: est. 5.0e8)	other: log2 PPxY/WT ([2]; volcano plot)	response (normalized abundance) ([3]; parent: est. 1.3e9)	Binder
35 A.U	1.3e+06	-4.1 log2	1.2e+08	-1.7 log2	4.5e+08	-1.8 log2	–	–	–	–	–	ALFA-tagged TXNIP (thioredoxin interacting protein), expressed in HEK293T, Q9H3M7 PPCY331AACA (protein) MVMFKKIKSFEVVFNDPEKVYGSGEKVAGRVIVEVCEVTRVKAVRILACGVAKVLWMQGSQQCKQTSEYLRYEDTLLLEDQPTGENEMVIMRPGNKYEYKFGFELPQGPLGTSFKGKYGCVDYWVKAFLDRPSQPTQETKKNFEVVDLVDVNTPDLMAPVSAKKEKKVSCMFIPDGRVSVSARIDRKGFCEGDEISIHADFENTCSRIVVPKAAIVARHTYLANGQTKVLTQKLSSVRGNHIISGTCASWRGKSLRVQKIRPSILGCNILRVEYSLLIYVSVPGSKKVILDLPLVIGSRSGLSSRTSSMASRTSSEMSWVDLNIPDTPEAAACAMDVIPEDHRLESPTTPLLDDMDGSQDSPIFMYAPEFKFMPPPTYTEVDPCILNNNVQ
–	–	–	–	–	–	–	19 A.U	80000	1e+08	-2.2 log2	800000	ALFA-tagged TXNIP (thioredoxin interacting protein), expressed in HEK293T, Q9H3M7 PPCY331AACA; PPTY375AATA (protein) MVMFKKIKSFEVVFNDPEKVYGSGEKVAGRVIVEVCEVTRVKAVRILACGVAKVLWMQGSQQCKQTSEYLRYEDTLLLEDQPTGENEMVIMRPGNKYEYKFGFELPQGPLGTSFKGKYGCVDYWVKAFLDRPSQPTQETKKNFEVVDLVDVNTPDLMAPVSAKKEKKVSCMFIPDGRVSVSARIDRKGFCEGDEISIHADFENTCSRIVVPKAAIVARHTYLANGQTKVLTQKLSSVRGNHIISGTCASWRGKSLRVQKIRPSILGCNILRVEYSLLIYVSVPGSKKVILDLPLVIGSRSGLSSRTSSMASRTSSEMSWVDLNIPDTPEAAACAMDVIPEDHRLESPTTPLLDDMDGSQDSPIFMYAPEFKFMPAATATEVDPCILNNNVQ
